From patent publication US10766960 (dated 2020)

How the values were obtained:
Test in all cases: SPR
FcgRIIIa F = FcgRIIIa F (human, UniProt P08637)
FcgRIa = biological target: T1, FcgRIa (human, UniProt P12314)
T1 chain: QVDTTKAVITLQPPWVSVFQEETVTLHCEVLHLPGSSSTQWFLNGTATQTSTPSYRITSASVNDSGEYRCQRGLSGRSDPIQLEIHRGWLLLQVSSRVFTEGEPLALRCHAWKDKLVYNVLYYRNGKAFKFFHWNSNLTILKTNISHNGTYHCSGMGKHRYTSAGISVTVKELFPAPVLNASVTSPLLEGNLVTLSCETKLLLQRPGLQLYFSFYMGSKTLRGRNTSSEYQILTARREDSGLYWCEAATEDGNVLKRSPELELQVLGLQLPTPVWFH

FcgRIIa R = biological target: T2, FcgRIIa R (human, UniProt P12318)
T2 chain: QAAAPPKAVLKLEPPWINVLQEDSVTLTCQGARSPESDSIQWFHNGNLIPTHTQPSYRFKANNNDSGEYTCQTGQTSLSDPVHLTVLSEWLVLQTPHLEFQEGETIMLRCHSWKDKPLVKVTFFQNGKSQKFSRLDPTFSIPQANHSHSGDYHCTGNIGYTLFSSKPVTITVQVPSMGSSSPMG

FcgRIIb = biological target: T3, FcgRIIb (human, UniProt P31994)
T3 chain: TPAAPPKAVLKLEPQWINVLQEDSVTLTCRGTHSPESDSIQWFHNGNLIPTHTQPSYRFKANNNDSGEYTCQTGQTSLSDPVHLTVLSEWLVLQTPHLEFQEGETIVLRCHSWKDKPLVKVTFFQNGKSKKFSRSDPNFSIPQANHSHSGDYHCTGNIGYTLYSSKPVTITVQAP

FcgRIIa H = biological target: T4, FcgRIIa H (human, UniProt P12318)
T4 chain: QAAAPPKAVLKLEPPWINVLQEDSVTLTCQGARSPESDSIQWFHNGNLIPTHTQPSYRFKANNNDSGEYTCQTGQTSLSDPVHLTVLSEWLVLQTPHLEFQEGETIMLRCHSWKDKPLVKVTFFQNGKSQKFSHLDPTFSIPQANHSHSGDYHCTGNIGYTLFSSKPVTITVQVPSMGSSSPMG

FcgRIIIa V = FcgRIIIa V (human, UniProt P08637)
Chain of FcgRIIIa V (P08637 17-208 F176V): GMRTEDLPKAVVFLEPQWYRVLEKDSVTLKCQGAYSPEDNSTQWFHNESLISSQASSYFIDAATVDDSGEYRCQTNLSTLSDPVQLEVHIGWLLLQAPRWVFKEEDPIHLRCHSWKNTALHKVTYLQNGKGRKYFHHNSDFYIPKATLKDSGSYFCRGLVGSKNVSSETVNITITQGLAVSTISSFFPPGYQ

Chain of FcgRIIIa F (P08637 17-208): as the sequence (P08637 17-208 F176V) above, with V160F counted along it

B1: H240-Kn201/H240-Hl214/L73-k0 (antibody)
chain 1: QDQLVQSGAEVKKPGASVKVSCKASGFNIKDTYIQWVRQAPGQGLEWMGRIDPLRKQTKYREKFEGRVTITADTSTNTAYMELSSLRSEDTAVYYCVRSGREFDYWGQGTLVTVSSASTKGPSVFPLAPSSKSTSGGTAALGCLVKDYFPEPVTVSWNSGALTSGVHTFPAVLQSSGLYSLSSVVTVPSSSLGTQTYICNVNHKPSNTKVDKKVEPKSCDKTHTCPPCPAPEFQWGPMVFLFPPKPKDTLMISRTPEVTCVVVDVSDEEPEVKFNWYVDGVEVHNAKTKPREEQYNATYRVVSVLTVLHQDWLNGKEYKCKVSNKALPAPIEKTISKAKGQPREPQVCTLPPSRDELTKNQVSLWCLVKGFYPSDIAVEWESNGQPENNYKTTPPVLDSDGSFFLYSKLTVDKSRWQQGNVFSCSVMHEALHNHYTQKSLSLSP
chain 2: QDQLVQSGAEVKKPGASVKVSCKASGFNIKDTYIQWVRQAPGQGLEWMGRIDPLRKQTKYREKFEGRVTITADTSTNTAYMELSSLRSEDTAVYYCVRSGREFDYWGQGTLVTVSSASTKGPSVFPLAPSSKSTSGGTAALGCLVKDYFPEPVTVSWNSGALTSGVHTFPAVLQSSGLYSLSSVVTVPSSSLGTQTYICNVNHKPSNTKVDKKVEPKSCDKTHTCPPCPAPELLGGPSVFLFPPKPKDTLMISRTPEVTCVVVDVSHEEPEVKFNWYVDGVEVHNAKTKPREEQYNSTYRVVSVLTVLHQDWLNGKEYKCKVSNDALPFPIEETISKAKGQPREPQVYTLPPSRCELTKNQVSLSCAVKGFYPSDIAVEWESNGQPENNYKTTPPVLDSDGSFFLVSKLTVDKSRWQQGNVFSCSVMHEALHNHYTQKSLSLSP
chain 3: DIQMTQSPSSLSASVGDRVTITCRASQDIHKYIAWYQQKPGQAPRLLIQYTSTLQPGVPSRFSGSGSGTDYTFTISSLQPEDIATYYCLQYEQLRTFGGGTKVEIKRTVAAPSVFIFPPSDEQLKSGTASVVCLLNNFYPREAKVQWKVDNALQSGNSQESVTEQDSKDSTYSLSSTLTLSKADYEKHKVYACEVTHQGLSSPVTKSFNRGEC
Question: With B1 as the binder, how does the Kd (FcgRIIIa F) read?
Answer: 3.9 nM

Question: And the Kd (FcgRIa)?
Answer: 0.091 nM

Question: And the Kd (FcgRIIa R)?
Answer: 560 nM

Question: What about the Kd (FcgRIIb) of the same binder?
Answer: 3700 nM

Question: And the Kd (FcgRIIa H)?
Answer: 150 nM

Question: And the Kd (FcgRIIIa V)?
Answer: 1.4 nM

B2: H240-Kn230/H240-Hl068/L73-k0 (antibody)
chain 1: QDQLVQSGAEVKKPGASVKVSCKASGFNIKDTYIQWVRQAPGQGLEWMGRIDPLRKQTKYREKFEGRVTITADTSTNTAYMELSSLRSEDTAVYYCVRSGREFDYWGQGTLVTVSSASTKGPSVFPLAPSSKSTSGGTAALGCLVKDYFPEPVTVSWNSGALTSGVHTFPAVLQSSGLYSLSSVVTVPSSSLGTQTYICNVNHKPSNTKVDKKVEPKSCDKTHTCPPCPAPEVYWGPIVFLFPPKPKDTLMISRTPEVTCVVVDVSDEDPEVKFNWYVDGVEVHNAKTKPREEQYNATYRVVSVLTVLHQDWLNGKEYKCKVSNKDLPAPIEKTISKAKGQPREPQVCTLPPSRDELTKNQVSLWCLVKGFYPSDIAVEWESNGQPENNYKTTPPVLDSDGSFFLYSKLTVDKSRWQQGNVFSCSVMHEALHNHYTQKSLSLSP
chain 2: QDQLVQSGAEVKKPGASVKVSCKASGFNIKDTYIQWVRQAPGQGLEWMGRIDPLRKQTKYREKFEGRVTITADTSTNTAYMELSSLRSEDTAVYYCVRSGREFDYWGQGTLVTVSSASTKGPSVFPLAPSSKSTSGGTAALGCLVKDYFPEPVTVSWNSGALTSGVHTFPAVLQSSGLYSLSSVVTVPSSSLGTQTYICNVNHKPSNTKVDKKVEPKSCDKTHTCPPCPAPELLGGPSVFLFPPKPKDTLMISRTPEVTCVVVDVSHEEPEVKFNWYVDGVEVHNAKTKPREEQYNSTYRVVSVLTVLHQDWLNGKEYKCKVSNDALPKPIEETISKAKGQPREPQVYTLPPSRCELTKNQVSLSCAVKGFYPSDIAVEWESNGQPENNYKTTPPVLDSDGSFFLVSKLTVDKSRWQQGNVFSCSVMHEALHNHYTQKSLSLSP
chain 3: DIQMTQSPSSLSASVGDRVTITCRASQDIHKYIAWYQQKPGQAPRLLIQYTSTLQPGVPSRFSGSGSGTDYTFTISSLQPEDIATYYCLQYEQLRTFGGGTKVEIKRTVAAPSVFIFPPSDEQLKSGTASVVCLLNNFYPREAKVQWKVDNALQSGNSQESVTEQDSKDSTYSLSSTLTLSKADYEKHKVYACEVTHQGLSSPVTKSFNRGEC
Question: Which results are given for B2?
Answer: Kd (FcgRIIIa F): 2.6 nM; Kd (FcgRIa): 0.18 nM; Kd (FcgRIIa R): 9.6 nM; Kd (FcgRIIb): 150 nM; Kd (FcgRIIa H): 22 nM; Kd (FcgRIIIa V): 0.93 nM

B3: H240-Kn201/H240-Hl210/L73-k0 (antibody)
chain 1: QDQLVQSGAEVKKPGASVKVSCKASGFNIKDTYIQWVRQAPGQGLEWMGRIDPLRKQTKYREKFEGRVTITADTSTNTAYMELSSLRSEDTAVYYCVRSGREFDYWGQGTLVTVSSASTKGPSVFPLAPSSKSTSGGTAALGCLVKDYFPEPVTVSWNSGALTSGVHTFPAVLQSSGLYSLSSVVTVPSSSLGTQTYICNVNHKPSNTKVDKKVEPKSCDKTHTCPPCPAPEFQWGPMVFLFPPKPKDTLMISRTPEVTCVVVDVSDEEPEVKFNWYVDGVEVHNAKTKPREEQYNATYRVVSVLTVLHQDWLNGKEYKCKVSNKALPAPIEKTISKAKGQPREPQVCTLPPSRDELTKNQVSLWCLVKGFYPSDIAVEWESNGQPENNYKTTPPVLDSDGSFFLYSKLTVDKSRWQQGNVFSCSVMHEALHNHYTQKSLSLSP
chain 2: QDQLVQSGAEVKKPGASVKVSCKASGFNIKDTYIQWVRQAPGQGLEWMGRIDPLRKQTKYREKFEGRVTITADTSTNTAYMELSSLRSEDTAVYYCVRSGREFDYWGQGTLVTVSSASTKGPSVFPLAPSSKSTSGGTAALGCLVKDYFPEPVTVSWNSGALTSGVHTFPAVLQSSGLYSLSSVVTVPSSSLGTQTYICNVNHKPSNTKVDKKVEPKSCDKTHTCPPCPAPELLGGPSVFLFPPKPKDTLMISRTPEVTCVVVDVSHEEPEVKFNWYVDGVEVHNAKTKPREEQYNSTYRVVSVLTVLHQDWLNGKEYKCKVSNDALPAPIEETISKAKGQPREPQVYTLPPSRCELTKNQVSLSCAVKGFYPSDIAVEWESNGQPENNYKTTPPVLDSDGSFFLVSKLTVDKSRWQQGNVFSCSVMHEALHNHYTQKSLSLSP
chain 3: DIQMTQSPSSLSASVGDRVTITCRASQDIHKYIAWYQQKPGQAPRLLIQYTSTLQPGVPSRFSGSGSGTDYTFTISSLQPEDIATYYCLQYEQLRTFGGGTKVEIKRTVAAPSVFIFPPSDEQLKSGTASVVCLLNNFYPREAKVQWKVDNALQSGNSQESVTEQDSKDSTYSLSSTLTLSKADYEKHKVYACEVTHQGLSSPVTKSFNRGEC
Question: Which Kd (FcgRIIIa F) does the source give for B3 here?
Answer: 3.2 nM

Question: What about the Kd (FcgRIa) of the same binder?
Answer: 0.069 nM

Question: And the Kd (FcgRIIa R)?
Answer: 430 nM

Question: And the Kd (FcgRIIb)?
Answer: 7200 nM

Question: And the Kd (FcgRIIa H)?
Answer: 110 nM

Question: And the Kd (FcgRIIIa V)?
Answer: 0.49 nM

B4: H240-Kn226/H240-Hl210/L73-k0 (antibody)
chain 1: QDQLVQSGAEVKKPGASVKVSCKASGFNIKDTYIQWVRQAPGQGLEWMGRIDPLRKQTKYREKFEGRVTITADTSTNTAYMELSSLRSEDTAVYYCVRSGREFDYWGQGTLVTVSSASTKGPSVFPLAPSSKSTSGGTAALGCLVKDYFPEPVTVSWNSGALTSGVHTFPAVLQSSGLYSLSSVVTVPSSSLGTQTYICNVNHKPSNTKVDKKVEPKSCDKTHTCPPCPAPEFQWGPIVFLFPPKPKDTLMISRTPEVTCVVVDVSDEEPEVKFNWYVDGVEVHNAKTKPREEQYNATYRVVSVLTVLHQDWLNGKEYKCKVSNKALPAPIEKTISKAKGQPREPQVCTLPPSRDELTKNQVSLWCLVKGFYPSDIAVEWESNGQPENNYKTTPPVLDSDGSFFLYSKLTVDKSRWQQGNVFSCSVMHEALHNHYTQKSLSLSP
chain 2: QDQLVQSGAEVKKPGASVKVSCKASGFNIKDTYIQWVRQAPGQGLEWMGRIDPLRKQTKYREKFEGRVTITADTSTNTAYMELSSLRSEDTAVYYCVRSGREFDYWGQGTLVTVSSASTKGPSVFPLAPSSKSTSGGTAALGCLVKDYFPEPVTVSWNSGALTSGVHTFPAVLQSSGLYSLSSVVTVPSSSLGTQTYICNVNHKPSNTKVDKKVEPKSCDKTHTCPPCPAPELLGGPSVFLFPPKPKDTLMISRTPEVTCVVVDVSHEEPEVKFNWYVDGVEVHNAKTKPREEQYNSTYRVVSVLTVLHQDWLNGKEYKCKVSNDALPAPIEETISKAKGQPREPQVYTLPPSRCELTKNQVSLSCAVKGFYPSDIAVEWESNGQPENNYKTTPPVLDSDGSFFLVSKLTVDKSRWQQGNVFSCSVMHEALHNHYTQKSLSLSP
chain 3: DIQMTQSPSSLSASVGDRVTITCRASQDIHKYIAWYQQKPGQAPRLLIQYTSTLQPGVPSRFSGSGSGTDYTFTISSLQPEDIATYYCLQYEQLRTFGGGTKVEIKRTVAAPSVFIFPPSDEQLKSGTASVVCLLNNFYPREAKVQWKVDNALQSGNSQESVTEQDSKDSTYSLSSTLTLSKADYEKHKVYACEVTHQGLSSPVTKSFNRGEC
Question: How did the Kd (FcgRIIIa F) turn out when B4 was run?
Answer: 3.7 nM

Question: And the Kd (FcgRIa)?
Answer: 0.11 nM

Question: And the Kd (FcgRIIa R)?
Answer: 310 nM

Question: And the Kd (FcgRIIb)?
Answer: 3100 nM

Question: And the Kd (FcgRIIa H)?
Answer: 120 nM

Question: What about the Kd (FcgRIIIa V) of the same binder?
Answer: 0.85 nM
